From PMC7952408
Entries after “also recorded” stand apart in the source; their conditions may differ.

Details: N-glycosylation at N297

Maxatezo / Atezolizumab (anti-PD-L1 human IgG1) heavy chain: N297A (Atezolizumab) compared with A297N back-mutation + GGGS insertion (Maxatezo)
expression_or_secretion: decreases, 1.3 g/L (aglycosylated) vs up to 4 g/L (Maxatezo)
other: increases
stability_or_folding: decreases, Tm1 71.01 °C (Maxatezo) vs 63.55 °C (Atezolizumab), 7.46 °C difference; also recorded: decreases, Tagg 71.2 °C (Maxatezo) vs 60.7 °C (Atezolizumab), 10.5 °C difference
